Assay results taken from paper PMC10775985, “Malaria parasite centrins can assemble by Ca^2+-inducible condensation” (PLOS Pathogens, 2023).

Tests used:
[1] = molecular target: PfCen3-6His (P. falciparum centrin 3, 6His-tagged) (P. falciparum); assay: turbidity (light scattering); PfCen1-6His and PfCen3-6His at individually subcritical concentrations, alone with BSA to a total protein concentration of >20 μM or as a mixture; calcium, then EDTA; 50 mM BisTris pH 7.1, 37°C
[2] = molecular target: PfCen1-6His (P. falciparum centrin 1, 6His-tagged) (P. falciparum); assay: turbidity (light scattering); range of PfCen1-6His concentrations to find the saturation concentration; CaCl2 to 2 mM; 50 mM BisTris pH 7.1, 37°C, no salt or PEG
[3] = molecular target: PfCen1-6His (P. falciparum centrin 1, 6His-tagged) (P. falciparum); assay: turbidity (light scattering); PfCen1-6His and PfCen3-6His at individually subcritical concentrations, alone with BSA to a total protein concentration of >20 μM or as a mixture; calcium, then EDTA; 50 mM BisTris pH 7.1, 37°C
[4] = molecular target: the molecule itself; assay: light microscopy of droplets in purified protein solutions; self-assembly into droplets; concentrated recombinant centrin (100-200 μM), 2 mM CaCl2 added, then 10 mM EDTA; 50 mM BisTris pH 7.1, 37°C

With “PfCen3-6His (P. falciparum centrin 3, 6His-tagged) (natural protein)” the csat (saturation concentration) [1] was 10 µM.

Work on “PfCen1-6His (P. falciparum centrin 1, 6His-tagged) (natural protein)” yielded a csat (critical saturation concentration) [2] of 10 to 15 µM and a csat (saturation concentration) [3] of 10 µM.

B1: HsCen2-6His (human centrin 2, 6His-tagged) (natural protein, UniProt P41208 1-172, looked up)
chain: MASNFKKANMASSSQRKRMSPKPELTEEQKQEIREAFDLFDADGTGTIDVKELKVAMRALGFEPKKEEIKKMISEIDKEGTGKMNFGDFLTVMTQKMSEKDTKEEILKAFKLFDDDETGKISFKNLKRVAKELGENLTDEELQEMIDEADRDGDGEVSEQEFLRIMKKTSLY
notes: human centrin 2 (HsCen2); mass spectrometry confirmed full length except for cleavage of methionine 1; source: E. coli BL21-CodonPlus (DE3), pET-28, purified (Ni-NTA); not shown: 6His, C-terminal, kept
B1: binds [4].

B2: ScCdc31-6His (Saccharomyces cerevisiae centrin Cdc31) (natural protein, UniProt P06704 1-161, looked up)
chain: MSKNRSSLQSGPLNSELLEEQKQEIYEAFSLFDMNNDGFLDYHELKVAMKALGFELPKREILDLIDEYDSEGRHLMKYDDFYIVMGEKILKRDPLDEIKRAFQLFDDDHTGKISIKNLRRVAKELGETLTDEELRAMIEEFDLDGDGEINENEFIAICTDS
notes: Saccharomyces cerevisiae centrin Cdc31, 161 aa, 19 kDa; source: recombinant, pET-28 construct from a synthetic codon optimized gene
B2: binds [4].
